For nine molecules, interaction score results are on record in article PMC10397247.

Like-named read-outs stand apart in the source and are kept apart here.

In assay [1] the target is T1, O6.
T1 chain: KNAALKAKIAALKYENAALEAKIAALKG
Kind of assay: two-hybrid library CC0.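 Also: natural log of median RNA to DNA barcode read ratio; higher means stronger binding.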 Conditions: mean of both orientations.

The target in assay [2] is T2, O5.
T2 chain: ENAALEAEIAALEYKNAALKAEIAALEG
Kind of assay: two-hybrid library CC0.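 Also: natural log of median RNA to DNA barcode read ratio; higher means stronger binding.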 Conditions: mean of both orientations.

Assay [3] concerns the target T3, O9.
T3 chain: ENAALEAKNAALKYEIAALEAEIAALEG
Kind of assay: two-hybrid library CC0.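 Also: natural log of median RNA to DNA barcode read ratio; higher means stronger binding.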 Conditions: mean of both orientations.

Assay [4] has as its target T4, O7.
T4 chain: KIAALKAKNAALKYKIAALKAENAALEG
Briefly: two-hybrid library CC0.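 Also: natural log of median RNA to DNA barcode read ratio; higher means stronger binding.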 Conditions: mean of both orientations.

Assay [5] addresses T5, O8.
T5 chain: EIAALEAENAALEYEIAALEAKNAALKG
Briefly: two-hybrid library CC0.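 Also: natural log of median RNA to DNA barcode read ratio; higher means stronger binding.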 Conditions: mean of both orientations.

The target in assay [6] is T6, P2-AA-12HAA-D.
T6 chain: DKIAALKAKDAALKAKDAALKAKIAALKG
Kind of assay: two-hybrid library CCmax.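 Also: natural log of median RNA to DNA barcode read ratio; higher means stronger binding.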 The settings on record: mean of both orientations.

In assay [7] the target is T7, P2-AA-12HAA-Y.
T7 chain: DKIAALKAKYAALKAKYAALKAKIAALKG
Briefly: two-hybrid library CCmax. The settings on record: mean of both orientations.

Assay [8] has as its target T8, P2-AA-12HAA-S.
T8 chain: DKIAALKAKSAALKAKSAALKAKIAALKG
Briefly: two-hybrid library CCmax. Conditions: mean of both orientations.

Assay [9] concerns the target T9, P2-AA-12HAA-E.
T9 chain: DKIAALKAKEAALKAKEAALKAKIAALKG
Kind of assay: two-hybrid library CCmax.

The target in assay [10] is T10, P2-AA-12HAA-L.
T10 chain: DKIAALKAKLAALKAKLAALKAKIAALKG
Kind of assay: two-hybrid library CCmax.

Assay [11] concerns the target T11, P2-AA.
T11 chain: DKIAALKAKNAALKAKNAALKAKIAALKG
Briefly: two-hybrid library CCmax. Conditions: mean of both orientations.

Assay [12] addresses T12, P2-AA-12HAA-K.
T12 chain: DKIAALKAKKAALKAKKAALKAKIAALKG
Briefly: two-hybrid library CCmax. The settings on record: mean of both orientations.

Assay [13] addresses T13, P2-AA-12HAA-V.
T13 chain: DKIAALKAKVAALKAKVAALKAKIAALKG
Kind of assay: two-hybrid library CCmax. The settings on record: mean of both orientations.

The target in assay [14] is T14, P2-AA-12HAA-H.
T14 chain: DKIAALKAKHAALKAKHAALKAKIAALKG
Kind of assay: two-hybrid library CCmax.

The target of assay [15] is T15, P2-AA-12HAA-T.
T15 chain: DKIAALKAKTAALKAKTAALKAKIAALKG
Kind of assay: two-hybrid library CCmax. Conditions: mean of both orientations.

Assay [16] deals with T16, P2-AA-12HAA-R.
T16 chain: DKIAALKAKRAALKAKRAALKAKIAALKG
Briefly: two-hybrid library CCmax. The settings on record: mean of both orientations.

For assay [17], the target named is T17, P2-AA-12HAA-I.
T17 chain: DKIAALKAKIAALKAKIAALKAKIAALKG
Briefly: two-hybrid library CCmax. The settings on record: mean of both orientations.

Assay [18] addresses T18, P9bHq.
T18 chain: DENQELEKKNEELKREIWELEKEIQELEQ
Briefly: two-hybrid library CCNG1.

Assay [19] has as its target T19, 4H3134-AA.
T19 chain: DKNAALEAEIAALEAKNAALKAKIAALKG
Briefly: two-hybrid library CCmax. The settings on record: mean of both orientations.

Assay [20] deals with T20, 4H3409-AA.
T20 chain: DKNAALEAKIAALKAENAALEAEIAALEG
Kind of assay: two-hybrid library CCmax. Conditions: mean of both orientations.

For assay [21], the target named is T21, 4H2873-AA.
T21 chain: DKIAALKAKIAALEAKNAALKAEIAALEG
Kind of assay: two-hybrid library CCmax. The settings on record: mean of both orientations.

The target of assay [22] is T22, 4H2758-AA.
T22 chain: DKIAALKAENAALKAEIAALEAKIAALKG
Briefly: two-hybrid library CCmax.

The target in assay [23] is T23, 4H816-AA.
T23 chain: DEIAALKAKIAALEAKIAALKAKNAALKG
Kind of assay: two-hybrid library CCmax. The settings on record: mean of both orientations.

The target of assay [24] is T24, 4H390-AA.
T24 chain: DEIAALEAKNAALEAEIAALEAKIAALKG
Briefly: two-hybrid library CCmax. Conditions: mean of both orientations.

In assay [25] the target is T25, 4H2985-AA.
T25 chain: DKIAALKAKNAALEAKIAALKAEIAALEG
Kind of assay: two-hybrid library CCmax. The settings on record: mean of both orientations.

Assay [26] deals with T26, 4H278-AA.
T26 chain: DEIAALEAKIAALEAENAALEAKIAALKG
Kind of assay: two-hybrid library CCmax. Conditions: mean of both orientations.

Assay [27] concerns the target T27, 4H87-AA.
T27 chain: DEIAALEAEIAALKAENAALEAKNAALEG
Briefly: two-hybrid library CCmax. Conditions: mean of both orientations.

For assay [28], the target named is T28, 4H3625-AA.
T28 chain: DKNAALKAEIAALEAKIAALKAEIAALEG
Kind of assay: two-hybrid library CCmax. Conditions: mean of both orientations.

Assay [29] addresses T29, 4H775-AA.
T29 chain: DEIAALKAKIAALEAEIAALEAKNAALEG
Kind of assay: two-hybrid library CCmax. Conditions: mean of both orientations.

Assay [30] addresses T30, 4H510-AA.
T30 chain: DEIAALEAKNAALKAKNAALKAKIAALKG
Kind of assay: two-hybrid library CCmax. The settings on record: mean of both orientations.

The target in assay [31] is T31, 4H3940-AA.
T31 chain: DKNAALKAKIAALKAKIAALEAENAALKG
Kind of assay: two-hybrid library CCmax. The settings on record: mean of both orientations.

Assay [32] has as its target T32, 4H492-bH.
T32 chain: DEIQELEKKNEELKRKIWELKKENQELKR
Kind of assay: two-hybrid library CCNG1.

Assay [33] deals with T33, 4H3057-bH.
T33 chain: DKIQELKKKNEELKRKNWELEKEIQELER
Kind of assay: two-hybrid library CCNG1.

Assay [34] has as its target T34, 4H319-bH.
T34 chain: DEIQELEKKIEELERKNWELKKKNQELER
Briefly: two-hybrid library CCNG1.

For assay [35], the target named is T35, 4H2839-bH.
T35 chain: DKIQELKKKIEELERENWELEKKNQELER
Kind of assay: two-hybrid library CCNG1.

The target of assay [36] is T36, 4H477-bH.
T36 chain: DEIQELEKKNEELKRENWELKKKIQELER
Kind of assay: two-hybrid library CCNG1.

The target of assay [37] is T37, 4H2915-bH.
T37 chain: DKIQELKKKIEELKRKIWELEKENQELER
Kind of assay: two-hybrid library CCNG1.

The target in assay [38] is T38, 4H348-bH.
T38 chain: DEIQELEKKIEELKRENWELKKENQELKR
Kind of assay: two-hybrid library CCNG1.

In assay [39] the target is T39, 4H3277-bH.
T39 chain: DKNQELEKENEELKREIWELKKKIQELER
Kind of assay: two-hybrid library CCNG1.

In assay [40] the target is T40, 4H40-bH.
T40 chain: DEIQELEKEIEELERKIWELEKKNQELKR
Kind of assay: two-hybrid library CCNG1.

Assay [41] deals with T41, 4H741-bH.
T41 chain: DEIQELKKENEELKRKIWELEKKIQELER
Kind of assay: two-hybrid library CCNG1.

For assay [42], the target named is T42, P2-AA-12HGe-W.
T42 chain: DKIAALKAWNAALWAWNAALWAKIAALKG
Briefly: two-hybrid library CCmax.

B1: O5 (peptide)
chain: ENAALEAEIAALEYKNAALKAEIAALEG
In the case of B1, the interaction score is 1.41 in assay [1]; -2.78 in assay [2]; -2.73 in assay [3]; -2.67 in assay [4]; -2.47 in [5].

B2: P1-AA-12HAA-V (peptide)
chain: DEIAALEAEVAALEAEVAALEAEIAALEG
Consider B2, for which the interaction score in assay [6] worked out at 1.1; in assay [7], 1.8; in assay [8], 1.44; in assay [9], 1.83; in assay [10] it was 1.78; in assay [11], 2.1. Further, the interaction score was determined as 1.35 in [12]; 2.21 in assay [13]; 1.25 in assay [14] (mean of both orientations); 1.86 in [15]; 1.69 in assay [16]; 1.82 in assay [17].

B3: P1-AA-12HAA-R (peptide)
chain: DEIAALEAERAALEAERAALEAEIAALEG
For the molecule B3, the interaction score in [6] was -0.753; in assay [7], 0.106; in [8], 1.44; in [9] (mean of both orientations), 0.85; in [10] (mean of both orientations), 1.95; in [11], 1.8. Further, the interaction score was -0.626 in assay [12]; 1.37 in assay [13]; 0.326 in assay [14] (mean of both orientations); 0.243 in assay [15]; -1.34 in assay [16]; 1.45 in assay [17].

B4: P1-AA-12HAA-A (peptide)
chain: DEIAALEAEAAALEAEAAALEAEIAALEG
As to B4, the interaction score in assay [6] is -0.675; in [7] it was 2; in assay [8] it was 1.55; in [9] (mean of both orientations) it was 0.947; in assay [10] (mean of both orientations), 1.84; in assay [11] it was 1.79. The interaction score is 1.48 in assay [12]; 1.9 in assay [13]; 2.14 in assay [14] (mean of both orientations); 1.66 in assay [15]; 0.883 in assay [16]; 1.82 in assay [17].

B5: P9bHq (peptide)
chain: DENQELEKKNEELKREIWELEKEIQELEQ
Regarding B5, the interaction score in [18] was -0.654.

B6: 4H2758-AA (peptide)
chain: DKIAALKAENAALKAEIAALEAKIAALKG
Consider B6, for which the interaction score is 0.499 in assay [19]; -0.325 in [20]; -0.654 in [21]; 1.56 in [22]; -1.38 in assay [23]; 0.895 in [24]. Besides, the interaction score in assay [25] was 1.59; in [26], -0.138; in [27], -1.35; in assay [28], -0.393; in [29] it was -0.652; in assay [30], 0.225. Further, in assay [31], the interaction score is -1.45.

B7: 4H2839-bH (peptide)
chain: DKIQELKKKIEELERENWELEKKNQELER
For the molecule B7, the interaction score in [32] was -0.474; in assay [33], 0.0652; in assay [34], 1.44; in [35] it was 1.04; in assay [36], -0.629; in [37] it was 0.242. Besides, the interaction score in assay [38] is 0.581; in assay [39], -1.06; in assay [40] it was 0.0596; in assay [41], -0.868.

B8: P1-AA-12HAA-D (peptide)
chain: DEIAALEAEDAALEAEDAALEAEIAALEG
Turning to B8, the interaction score is -1.35 in [6]; -1.44 in assay [7]; 0.438 in assay [8]; -1.33 in assay [9] (mean of both orientations); -1.19 in assay [10] (mean of both orientations); -2.4 in [42]. Moreover, the interaction score in assay [11] was -0.884; in assay [12] it was 0.46; in [13], -0.204; in [14] (mean of both orientations) it was 0.205; in assay [15] it was -1.11; in [16] it was 1.84. This molecule also yielded an interaction score in [17] of -0.345.

B9: P1-AA-12HAA-I (peptide)
chain: DEIAALEAEIAALEAEIAALEAEIAALEG
With B9, the interaction score came out at 1.29 in assay [6]; 1.87 in [7]; 2.16 in assay [8]; 1.58 in assay [9] (mean of both orientations); 2.28 in [10] (mean of both orientations); 1.8 in assay [11]. For the same molecule, the interaction score is 1.78 in assay [12]; 1.79 in assay [13]; 1.79 in assay [14]; 1.75 in assay [15]; 2 in assay [16]; 2.05 in [17].
